Laboratory results from US5602102A, “Dipeptidyl peptidase-I inhibitors and uses thereof” (Board of Regents, The Univ. of TX System, priority 1992, dated 1997).
One block for each compound: values may come before it. Where a SMILES comes first, the peptide text is derived from it. The star is where a group is joined. Cbz = O=C(OCc1ccccc1)*; CHN2 = [N-]=[N+]=C*

What was measured:
[1] = target: murine granzyme A proenzyme (murine) (UniProt P11032); conditions: scale: Δabsorbance410/hour per cells
[2] = target: T1, BLT esterase (granzyme A) (Mus musculus, UniProt P11032); experiment: BLT esterase activity in granule fractions of control CD8(+) CTL, in vitro incubation with inhibitor; type: biochemical, murine; conditions: in vitro incubation with 1 mM
T1 construct: endogenous in cells; host or cells: alloreactive murine CD8(+) T cells, whole cells or Percoll granule fractions
T1 sequence (P11032 29-260): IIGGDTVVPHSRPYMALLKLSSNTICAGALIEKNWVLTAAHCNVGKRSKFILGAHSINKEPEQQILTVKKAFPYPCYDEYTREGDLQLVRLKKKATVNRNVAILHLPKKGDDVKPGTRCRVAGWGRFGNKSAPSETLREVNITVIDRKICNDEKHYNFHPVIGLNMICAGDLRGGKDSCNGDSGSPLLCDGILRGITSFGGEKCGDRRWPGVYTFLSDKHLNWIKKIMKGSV
Procedure: 193, Academic Press, New York).
Cells were incubated for 5 minutes on ice in hypotonic homogenization buffer (0.1× PBS salts, 1 mM MgCl2). The cells were disrupted with a glass pestle homogenizer and isotonic conditions restored by the addition of 10× PBS salts. The homogenates were cleared of cell debris and intact cells by centrifugation at 600 xg for 2 minutes. The soluble extracts were layered on discontinuous Percoll gradients (6 ml 39%, 6 ml 90% Percoll) and centrifuged .for one hour at 17,000 xg. The gradients were fractionated by removing 1 ml aliquots from the top.
Alloreactive CD8(+) T-cells were homogenized and fractionated on discontinuous Percoll gradients.

[3] = target: human dipeptidyl peptidase-I (Homo sapiens, UniProt P53634); experiment: Effect of protease inhibitors on DPPI activity (purified enzyme); type: biochemical; set-up: Human DPPI is now established to constitute a 200,000 Da glycoprotein with 24,000 Da subunits; from tissue; host or cells: human cadaveric spleen; conditions: screening conditions pH 5.5
Procedure: Note. Purified human dipeptidyl peptidaseI (0.4 μg) was preincubated
with each of the inhibitors at the stated concentration for 15 min at
37° C.. Each sample was diluted 3fold with assay buffer containing
substrate and incubated for an additional 20 min.

NK cells (Yac-1 targets) = experiment: NK function of spleen cells, specific lysis of Yac-1; type: in vivo, murine; conditions: spleen cells of saline injected mice treated with 250 μM Leu-Leu-Ome
Description: (§1) The Yac-1 represents a standard target for natural killer (NK) cells.

CTL precursors = experiment: MLC activated anti-H-2 specific CTL from spleen cells; type: in vivo, murine; conditions: spleen cells of saline injected mice treated with 250 μM Leu-Leu-Ome
Description: as §1
Unlike control cells, spleen cells in which DPPI activity was inhibited were resistant to any discernible toxic effects of Leu--Leu--OMe on NK function of the capacity to generate anti-H-2^d specific CTL.

[4] = system: BLT esterase (granzyme A); experiment: BLT esterase activity in IL2 activated human PBL; type: cell-based; conditions: IL2 activated Leu--Leu--OMe treated PBL
Description: The cells were then harvested, disrupted in a dounce homogenizer, the nuclei pelleted and residual intact cells removed by centrifugation and the granule fraction localized on discontinuous Percoll gradients. […] Thus, Leu--Leu--OMe sensitive, DPPI enriched cells are the source of BLT esterase in such IL2 activated cultures.

DPPI = DPPI (Homo sapiens, UniProt P53634); conditions: cited from earlier work
[5] = target: human leukocyte elastase proenzyme (human) (UniProt P08246)
[6] = target: human granzyme A proenzyme (human) (UniProt P12544)
[7] = target: propeptide-bearing form of human cathepsin G (human) (UniProt P08311)

generation of BLT esterase activity in murine alloreactive CD8(+) T cells with DPPI inhibited [1]: 3.3
Compound: murine dipeptidyl peptidase-I (from UniProt P97821) (enzyme)

Compound: O=S(=O)(F)Cc1ccccc1 [PMSF, phenylmethylsulfonylfluoride]
BLT esterase activity in granule fractions inhibited [2]: > 95%
effect on DPPI activity (in words) [3]: no effect

BLT esterase activity [4]: could not be detected
Compound: COC(=O)[C@H](CC(C)C)NC(=O)[C@@H](N)CC(C)C [Leu--Leu--OMe]
NK Function % Specific Lysis Yac-1 (NK cells (Yac-1 targets); 20:1): < 1 % Specific Lysis
NK Function % Specific Lysis Yac-1 (NK cells (Yac-1 targets); 80:1): < 1 % Specific Lysis
MLC Activated Anti-H-2° Spec. CTL (CTL precursors; 20:1): 1
MLC Activated Anti-H-2° Spec. CTL (CTL precursors; 80:1): 3

Compound: [N-]=[N+]=CC(=O)C(Cc1ccccc1)NC(=O)CNC(=O)C(Cc1ccccc1)NC(=O)OCc1ccccc1 (stereo not drawn) [Z--Phe--Gly--Phe--CHN2] (Cbz-Phe-Gly-Phe-CHN2; configuration not given here)
less reactive with DPPI than Gly--Phe--CHN2 (DPPI): 3 orders of magnitude

hydrolysis of synthetic peptide substrate by purified human DPPI (values at 100 µM and 500 µM substrate; value given is at 500 µM) (Ala-Ala-Val-Ala-pNA): 120 not printed
hydrolysis of synthetic peptide substrate by purified human DPPI (values at 100 µM and 500 µM substrate; value given is at 500 µM) (Ala-Ala-pNA): 1000 not printed
hydrolysis of synthetic peptide substrate by purified human DPPI (values at 100 µM and 500 µM substrate; value given is at 500 µM) (Arg-Arg-βNA): 0 not printed
hydrolysis of synthetic peptide substrate by purified human DPPI (values at 100 µM and 500 µM substrate; value given is at 500 µM) (Asp-Ala-βNA): 1000 not printed
hydrolysis of synthetic peptide substrate by purified human DPPI (values at 100 µM and 500 µM substrate; value given is at 500 µM) (CBZ-Arg-Arg-βNA): 0 not printed
hydrolysis of synthetic peptide substrate by purified human DPPI (values at 100 µM and 500 µM substrate; value given is at 500 µM) (CBZ-Gly-Pro-Arg-AMC): 0 not printed
hydrolysis of synthetic peptide substrate by purified human DPPI (values at 100 µM and 500 µM substrate; value given is at 500 µM) (CBZ-Val-Leu-Arg-MNA): 0 not printed
hydrolysis of synthetic peptide substrate by purified human DPPI (values at 100 µM and 500 µM substrate; value given is at 500 µM) (Gly-Arg-MNA): 4750 not printed
hydrolysis of synthetic peptide substrate by purified human DPPI (values at 100 µM and 500 µM substrate; value given is at 500 µM) (Gly-Phe-AMC): 6120 not printed
hydrolysis of synthetic peptide substrate by purified human DPPI (values at 100 µM and 500 µM substrate; value given is at 500 µM) (Gly-Phe-MNA): 5750 not printed
hydrolysis of synthetic peptide substrate by purified human DPPI (values at 100 µM and 500 µM substrate; value given is at 500 µM) (Gly-Phe-pNA): 380 not printed
hydrolysis of synthetic peptide substrate by purified human DPPI (values at 100 µM and 500 µM substrate; value given is at 500 µM) (Gly-Phe-βNA): 4380 not printed
hydrolysis of synthetic peptide substrate by purified human DPPI (values at 100 µM and 500 µM substrate; value given is at 500 µM) (Gly-Pro-MNA): 0 not printed
hydrolysis of synthetic peptide substrate by purified human DPPI (values at 100 µM and 500 µM substrate; value given is at 500 µM) (Gly-Pro-βNA): 0 not printed
hydrolysis of synthetic peptide substrate by purified human DPPI (values at 100 µM and 500 µM substrate; value given is at 500 µM) (Pro-Phe-Arg-AMC): 0 not printed
hydrolysis of synthetic peptide substrate by purified human DPPI (values at 100 µM and 500 µM substrate; value given is at 500 µM) (Ser-Tyr-MNA): 1750 not printed
hydrolysis of synthetic peptide substrate by purified human DPPI (values at 100 µM and 500 µM substrate; value given is at 500 µM) (Ser-Tyr-βNA): 2000 not printed
hydrolysis of synthetic peptide substrate by purified human DPPI (values at 100 µM and 500 µM substrate; value given is at 500 µM) (Suc-Ala-Ala-Ala-pNA): 0 not printed
hydrolysis of synthetic peptide substrate by purified human DPPI (values at 100 µM and 500 µM substrate; value given is at 500 µM) (Suc-Ala-Ala-Pro-Phe-pNA): 0 not printed
generation of elastase activity in U-937 cells with endogenous DPPI inhibited for 48 hours [5]: 65 % decrease
generation of granzyme A (BLT esterase) activity in human LAK cells with endogenous DPPI inhibited [6]: < 90 % reduction
processing of newly synthesized cathepsin G to the active form in U-937 cells with endogenous DPPI inhibited (3H-Ile pulse-chase, aprotinin-agarose, radiosequencing) [7]: < 10 % of control
Compound: human dipeptidyl peptidase-I (from UniProt P53634) (enzyme)
